Measured values taken from PMC7955032, “The amyloid structure of mouse RIPK3 (receptor interacting protein kinase 3) in cell necroptosis” (Nature Communications, 2021).

B1: mouse RIPK3 409-486 Q449D (domain or fragment, UniProt Q9QZL0 409-486, looked up)
chain: GPHPQRNQGDGRHGTPWYPWTPPNPMTGPPALVFNNCSEVDIGNYNSLVAPPRTTASSSAKYDQAQFGRGRGWQPFHK
notes: RIPK3, mouse, residues 409-486, same construction as the SSNMR sample, with Q449D; Same construct as m1 with one substitution; source: E. coli Transetta (DE3), purified (Ni-NTA, reverse phase HPLC)
B2: mouse RIPK3 409-486 F442D (domain or fragment, UniProt Q9QZL0 409-486, looked up)
chain: GPHPQRNQGDGRHGTPWYPWTPPNPMTGPPALVDNNCSEVQIGNYNSLVAPPRTTASSSAKYDQAQFGRGRGWQPFHK
notes: RIPK3, mouse, residues 409-486, same construction as the SSNMR sample, with F442D; Same construct as m1 with one substitution; source: E. coli Transetta (DE3), purified (Ni-NTA, reverse phase HPLC)
B3: mouse RIPK3 409-486 L456D (domain or fragment, UniProt Q9QZL0 409-486, looked up)
chain: GPHPQRNQGDGRHGTPWYPWTPPNPMTGPPALVFNNCSEVQIGNYNSDVAPPRTTASSSAKYDQAQFGRGRGWQPFHK
notes: RIPK3, mouse, residues 409-486, same construction as the SSNMR sample, with L456D; Same construct as m1 with one substitution; source: E. coli Transetta (DE3), purified (Ni-NTA, reverse phase HPLC)

Assays:
[1] = molecular target: the molecule itself; experiment: solid-state NMR; MAS SSNMR of isotope-labelled fibrils, 700 MHz, 303 K, 15 kHz; structure calculated with Xplor-NIH for 5 copies of residues 441-460; intermolecular contacts from [2-13C]-glycerol labelled sample and from a 1:1 mix of 15N- and 13C-labelled protein
[2] = molecular target: the molecule itself; experiment: thioflavin T fluorescence of fibril growth; 2 mM protein in 6 M GudHCl diluted to 20 µM in 10 mM PB buffer pH 7.4, 50 µM ThT, room temperature, about 4 h

Protein | binding result [1] | binding result [2]
B1 | binds | 
B2 |  | binds
B3 | binds | 
